Here are results for 7 molecules from article doi:10.1101/2020.06.12.149468v2 (biorxiv, 2026).

The subject of data set [1] is C[C@]12CCC(=O)C=C1CC[C@@H]1[C@@H]2[C@@H](O)C[C@@]2(C)[C@H]1CC[C@]2(O)C(=O)CO. The data set is described as follows: purified protein. The note with it: 50 mM phosphate pH 7.5, NADH.
The target in data set [2] is T1, mouse NR4A3 ligand-binding domain (Mus musculus, UniProt Q9QZB6).
T1 sequence (Q9QZB6 395-624): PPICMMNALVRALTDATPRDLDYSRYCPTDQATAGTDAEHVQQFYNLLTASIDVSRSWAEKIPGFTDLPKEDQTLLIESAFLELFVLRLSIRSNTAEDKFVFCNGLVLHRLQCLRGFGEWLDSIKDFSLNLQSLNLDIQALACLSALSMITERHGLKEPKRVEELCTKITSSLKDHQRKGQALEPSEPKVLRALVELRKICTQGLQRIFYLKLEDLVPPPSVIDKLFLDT
Briefly: isothermal titration calorimetry. In general terms: ITC needs no label: the signal is the heat of the interaction.

Substrate in the data set “purified protein”: C[C@]12CCC(=O)C=C1CC[C@@H]1[C@@H]2[C@@H](O)C[C@@]2(C)[C@H]1CC[C@]2(O)C(=O)CO
The data set is described as follows: purified protein. The settings on record: 50 mM phosphate pH 7.5, NADH. This is another data set of the same source.

As for “DesC ([Clostridium] scindens ATCC 35704; S47T)”, in data set [1], the Km (in general, the substrate concentration at which the rate is half of its maximum) was found to be 77.78 ± 1.78 µM and the kcat (commonly the maximal rate divided by the concentration of active sites) turned out to be 0.011 ± 0.00067 s⁻¹.

With `CCCCC[C@H](O)/C=C/[C@H]1C=CC(=O)[C@@H]1C/C=C\CCCC(=O)O` [PGA2], in data set [2], the Kd (in general, the concentration at which binding is half-saturated) turned out to be 66.6 ± 17.4 µM.

As to “DesC ([Clostridium] scindens ATCC 35704; H50A)”, in data set [1], the Km came out at 23.99 ± 0.26 µM and the kcat was determined as 0.208 ± 0.0148 s⁻¹.

`C[C@]12CCC(=O)C=C1CC[C@@H]1[C@@H]2[C@@H](O)C[C@@]2(C)[C@H]1CC[C@]2(O)[C@@H](O)CO` [20α-dihydrocortisol] came in with a Kd in data set [2] of 21.9 ± 2.6 µM.

Turning to “DesC ([Clostridium] scindens ATCC 35704; Y124R)”, in data set [1], the Km is given as 61.01 ± 2.71 µM and the kcat stood at 0.134 ± 0.00233 s⁻¹.

In the case of “DesC ([Clostridium] scindens ATCC 35704; Y101R)”, in data set [1], the Km was determined as 628.65 ± 29.96 µM and the kcat was found to be 0.0295 ± 0.005 s⁻¹.

B1: DesC ([Clostridium] scindens ATCC 35704) (protein)
chain: MRQLFVTSIRDFEKNTMGTVDMMEAPMPEPKDEEIRIKVVYASICGSDTHILTGNLGEMESTTRSMLPMSFGHELSGVIDKVGSTAEKMGFKVGQKVVANYAKYCGCCENCREGKVNLCSNMGYRMNGFSEYAVYHMSQIFPIPDDADLKDYALVEPLTVALSSAEQAKISYGKSVAIMGAGGLGMMLVQLARLAGASTITVFDIVPEKLELALENGADYALNSAEEGVAERAIELAGGRYDCVLEGTGATAAAKLGLQLLARDGDAVYFAMYGKDPILPVNLQSDLYWDQKHIHGMIQGAWQFPKSIRMIPRMDFSKIIQKEHTLTNYKQAFEDLYSKKYAKIVIKMDE
B1: in “purified protein”, the Km is on record as 11.62 ± 1.02 µM and the kcat stood at 1.538 ± 0.125 s⁻¹.
